Measured values: US20130273068A1 (published 2013)

Molecular target: T1, human ADP-ribosyl cyclase 2 (BST1; CD157) (human, UniProt Q10588 33-293)
T1 construct: Endogenous BST1 on human cells (A549, H226, U937, AML blasts); also called Bone marrow stromal antigen 1; cell-surface human BST1
T1 sequence: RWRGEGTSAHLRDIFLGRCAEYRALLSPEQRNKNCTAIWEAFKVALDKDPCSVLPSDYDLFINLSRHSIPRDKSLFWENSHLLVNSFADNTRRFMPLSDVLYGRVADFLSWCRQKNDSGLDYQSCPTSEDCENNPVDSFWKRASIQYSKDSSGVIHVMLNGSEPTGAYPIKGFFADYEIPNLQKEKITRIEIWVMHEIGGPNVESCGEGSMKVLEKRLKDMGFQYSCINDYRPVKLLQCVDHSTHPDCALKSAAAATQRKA
Experiment: flow cytometry on A549 and H226 cells
Protocol: The specificity of antibodies against the BST1 selected in Example 2 was tested by flow cytometry. To test the ability of the antibodies to bind to the cell surface BST1 protein, the antibodies were incubated with the BST1-expressing cells, A549 and H226, from human lung adenocarcinoma and human lung squamous carcinoma, respectively. Cells were washed in FACS buffer (DPBS, 2% FBS), centrifuged and resuspended in […] of the diluted primary BST1 antibody (also diluted in FACS buffer). The antibody-A549 complex was incubated on ice for 60 min and then washed twice with FACS buffer as described above. The cell-antibody pellet was resuspended in 100 μl of the diluted secondary antibody (also diluted in FACS buffer) and incubated on ice for 60 min on ice. The pellet was washed as before and resuspended in […] FACS buffer. The samples were loaded onto the BD FACScanto II flow sytometer and the data analyzed using the BD FACSdiva software.

binding result: binds
B1: BST1_A3 (Fab, V domains shown)
VH: QVQLQQSRAELVMPGASVKMSCKTSGYTFSDYWVHWVRQRPGQGLEWIGAIDGSDTFNDYSQKFKGRATLTVDESSSTVYMQLSSLTSEDSAVYYCARGGLLQYWGQGTTLTVSS
VL: DIQLTQSPASLSASVGETVTITCRASENIYSYLAWYQQKQGKSPQLLVYNTKTLGEGVPSRFSGSGSGTQFSLKINSLQPEDFGSYYCQHHYGTPFTFGSGTKLEIKR
